Assay results published in patent US20110300138A1 (published 2011).
Like-named read-outs stand apart in the source and are kept apart here.

Tests used:
[1] = biological target: full length wild type human TSHR (human) (UniProt P16473); assay: TSHR260-AP bridge ELISA, wild type TSHR on wells; IgG at 1 µg/mL in HBD
[2] = biological target: full length human TSHR with mutation Arg255 Asp (human) (UniProt P16473); assay: TSHR260-AP bridge ELISA, Arg255 Asp TSHR on wells; IgG at 1 µg/mL in HBD
[3] = biological target: full length human TSHR with mutation Arg255 Asp (human) (UniProt P16473); assay: TSHR260-AP bridge ELISA, Arg255 Asp TSHR on wells; IgG at 0.1 µg/mL in HBD
[4] = biological target: full length wild type human TSHR (human) (UniProt P16473); assay: TSHR260-AP bridge ELISA, wild type TSHR on wells; IgG at 0.01 µg/mL in HBD
[5] = biological target: full length human TSHR with mutation Arg255 Asp (human) (UniProt P16473); assay: TSHR260-AP bridge ELISA, Arg255 Asp TSHR on wells; IgG at 0.01 µg/mL in HBD
[6] = biological target: full length wild type human TSHR (human) (UniProt P16473); assay: TSHR260-AP bridge ELISA, wild type TSHR on wells; IgG at 0.005 µg/mL in HBD
[7] = biological target: TSHR260-alkaline phosphatase (TSHR260-AP) (human) (UniProt P05187); assay: TSHR260-AP bridge ELISA, full length TSHR on wells; 0.05 µg/mL, diluted in HBD
[8] = biological target: TSHR260-alkaline phosphatase (TSHR260-AP) (human) (UniProt P05187); assay: TSHR260-AP bridge ELISA, full length TSHR on wells; 0.005 µg/mL, diluted in HBD
[9] = biological target: TSHR260-alkaline phosphatase (TSHR260-AP) (human) (UniProt P05187); assay: TSHR260-AP bridge ELISA, full length TSHR on wells; 0.1 µg/mL, diluted in assay buffer
[10] = biological target: TSHR with Arg109 mutated to Ala, expressed in CHO cells (human) (UniProt P16473); assay: cell-based or functional assay
[11] = biological target: TSHR with Asp203 mutated to Ala expressed in CHO cells (human) (UniProt P16473); assay: cell-based or functional assay
[12] = biological target: TSHR with Lys129 mutated to Ala, expressed in CHO cells (human) (UniProt P16473); assay: cell-based or functional assay
[13] = biological target: TSHR with Lys58 mutated to Ala expressed in CHO cells (human) (UniProt P16473); assay: cell-based or functional assay
[14] = biological target: TSHR with Tyr185 mutated to Ala (human) (UniProt P16473); assay: cell-based or functional assay
[15] = biological target: wild type TSHR (human) (UniProt P16473); assay: cell-based or functional assay
[16] = biological target: TSHR with Lys209 mutated to Ala (human) (UniProt P16473); assay: cell-based or functional assay
[17] = biological target: wild type TSHR (human) (UniProt P16473); assay: cell-based or functional assay; remark: listed apart in the source
[18] = biological target: TSHR260-alkaline phosphatase (TSHR260-AP) (human) (UniProt P05187); assay: TSHR260-AP bridge ELISA, full length TSHR on wells; 100 µg/mL, diluted in assay buffer
[19] = biological target: TSH receptor (TSHR), full length human, coated on tubes (human) (UniProt P16473); assay: inhibition of 125I-TSH binding to TSHR coated tubes; 1 µg/mL, diluted in HBD serum pool
[20] = biological target: TSHR260-AP (human); assay: TSHR260-AP bridge ELISA (full length TSHR on wells, TSHR260-AP in solution); IgG 100 µg/mL diluted in assay buffer

Sequence of M22 IgG (antibody) (VH): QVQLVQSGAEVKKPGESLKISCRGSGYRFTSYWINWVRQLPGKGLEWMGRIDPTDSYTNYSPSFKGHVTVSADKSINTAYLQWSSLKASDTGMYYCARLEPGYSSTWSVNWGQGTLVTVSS
Sequence of M22 IgG (antibody) (V domain): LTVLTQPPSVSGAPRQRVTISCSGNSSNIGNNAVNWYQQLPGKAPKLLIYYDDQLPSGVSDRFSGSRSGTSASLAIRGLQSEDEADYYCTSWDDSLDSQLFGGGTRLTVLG

Substance: M22 IgG (antibody)
- Mean absorbance at 405 nm (absorbance at 405 nm) [1]: 1.17
- Mean absorbance at 405 nm (absorbance at 405 nm) [2]: 0.34
- Mean absorbance at 405 nm (absorbance at 405 nm) [3]: 0.05
- Mean absorbance at 405 nm (absorbance at 405 nm) [4]: 0.064
- Mean absorbance at 405 nm (absorbance at 405 nm) [5]: -0.002
- Mean absorbance at 405 nm (absorbance at 405 nm) [6]: 0.032
- Mean absorbance at 405 nm (absorbance at 405 nm) [7]: 0.204
- Mean absorbance at 405 nm (absorbance at 405 nm) [8]: 0.045
- Mean absorbance at 405 nm (absorbance at 405 nm) [9]: 0.653

Substance: 5B3 IgG (antibody)
- % inhibition of TSH stimulation; 5B3 10 µg/mL; Experiment 1 [10]: 0%
- % inhibition of TSH stimulation; 5B3 10 µg/mL; Experiment 2 [10]: 0%
- % inhibition of TSH stimulation; 5B3 100 µg/mL; Experiment 1 [10]: 0%
- % inhibition of TSH stimulation; 5B3 100 µg/mL; Experiment 2 [10]: 0%
- Cyclic AMP produced; 5B3 10 µg/mL + TSH 3 ng/mL; Experiment 1 [10]: 34.4 pmol/mL
- Cyclic AMP produced; 5B3 10 µg/mL + TSH 3 ng/mL; Experiment 2 [10]: 60.6 pmol/mL
- Cyclic AMP produced; 5B3 100 µg/mL + TSH 3 ng/mL; Experiment 1 [10]: 34.5 pmol/mL
- Cyclic AMP produced; 5B3 100 µg/mL + TSH 3 ng/mL; Experiment 2 [10]: 56.6 pmol/mL
- Mutated/wild type (%) of cyclic AMP produced; 5B3 10 µg/mL + TSH 3 ng/mL; Experiment 1 [10]: 52%
- Mutated/wild type (%) of cyclic AMP produced; 5B3 10 µg/mL + TSH 3 ng/mL; Experiment 2 [10]: 88%
- Mutated/wild type (%) of cyclic AMP produced; 5B3 100 µg/mL + TSH 3 ng/mL; Experiment 1 [10]: 50%
- Mutated/wild type (%) of cyclic AMP produced; 5B3 100 µg/mL + TSH 3 ng/mL; Experiment 2 [10]: 85%
- % inhibition of TSH stimulation: 5B3 10 µg/mL [11]: 0%
- % inhibition of TSH stimulation: 5B3 100 µg/mL [11]: 0%
- Cyclic AMP, Mutated/wild type (%): 5B3 10 µg/mL + TSH 3 ng/mL [11]: 89%
- Cyclic AMP, Mutated/wild type (%): 5B3 100 µg/mL + TSH 3 ng/mL [11]: 84%
- % inhibition of TSH stimulation; 5B3 10 µg/mL [12]: 0%
- % inhibition of TSH stimulation; 5B3 100 µg/mL [12]: 13%
- Cyclic AMP produced; 5B3 10 µg/mL + TSH 3 ng/mL [12]: 50.5 pmol/mL
- Cyclic AMP produced; 5B3 100 µg/mL + TSH 3 ng/mL [12]: 42.6 pmol/mL
- Mutated/wild type (%) of cyclic AMP produced; 5B3 10 µg/mL + TSH 3 ng/mL [12]: 94%
- Mutated/wild type (%) of cyclic AMP produced; 5B3 100 µg/mL + TSH 3 ng/mL [12]: 81%
- % inhibition of TSH stimulation; 5B3 10 µg/mL; Experiment 1 [13]: 0%
- % inhibition of TSH stimulation; 5B3 10 µg/mL; Experiment 2 [13]: 4%
- % inhibition of TSH stimulation; 5B3 100 µg/mL; Experiment 1 [13]: 0%
- % inhibition of TSH stimulation; 5B3 100 µg/mL; Experiment 2 [13]: 1%
- Cyclic AMP produced; 5B3 10 µg/mL + TSH 3 ng/mL; Experiment 1 [13]: 81.6 pmol/mL
- Cyclic AMP produced; 5B3 10 µg/mL + TSH 3 ng/mL; Experiment 2 [13]: 92.9 pmol/mL
- Cyclic AMP produced; 5B3 100 µg/mL + TSH 3 ng/mL; Experiment 1 [13]: 81.6 pmol/mL
- Cyclic AMP produced; 5B3 100 µg/mL + TSH 3 ng/mL; Experiment 2 [13]: 95.8 pmol/mL
- Mutated/wild type (%) of cyclic AMP produced; 5B3 10 µg/mL + TSH 3 ng/mL; Experiment 1 [13]: 99%
- Mutated/wild type (%) of cyclic AMP produced; 5B3 10 µg/mL + TSH 3 ng/mL; Experiment 2 [13]: 88%
- Mutated/wild type (%) of cyclic AMP produced; 5B3 100 µg/mL + TSH 3 ng/mL; Experiment 1 [13]: 101%
- Mutated/wild type (%) of cyclic AMP produced; 5B3 100 µg/mL + TSH 3 ng/mL; Experiment 2 [13]: 106%
- % inhibition of TSH stimulation, 5B3 10 µg/mL, mutated TSHR [14]: 10%
- % inhibition of TSH stimulation, 5B3 100 µg/mL, mutated TSHR [14]: 0%
- Cyclic AMP produced (pmol/mL), 5B3 10 µg/mL + TSH 3 ng/mL, mutated TSHR [14]: 47 pmol/mL
- Cyclic AMP produced (pmol/mL), 5B3 100 µg/mL + TSH 3 ng/mL, mutated TSHR [14]: 56.1 pmol/mL
- Mutated/wild type (%) of cyclic AMP produced; 5B3 10 µg/mL + TSH 3 ng/mL [14]: 37%
- Mutated/wild type (%) of cyclic AMP produced; 5B3 100 µg/mL + TSH 3 ng/mL [14]: 58%
- % inhibition of TSH stimulation, 5B3 10 µg/mL, wild type TSHR [15]: 0%
- % inhibition of TSH stimulation, 5B3 100 µg/mL, wild type TSHR [15]: 3%
- Cyclic AMP produced (pmol/mL), 5B3 10 µg/mL + TSH 3 ng/mL, wild type TSHR [15]: 126 pmol/mL
- Cyclic AMP produced (pmol/mL), 5B3 100 µg/mL + TSH 3 ng/mL, wild type TSHR [15]: 97.3 pmol/mL
- % inhibition of TSH stimulation, 5B3 10 µg/mL, mutated TSHR [16]: 2%
- % inhibition of TSH stimulation, 5B3 100 µg/mL, mutated TSHR [16]: 3%
- Cyclic AMP produced (pmol/mL), 5B3 10 µg/mL + TSH 3 ng/mL, mutated TSHR [16]: 56.5 pmol/mL
- Cyclic AMP produced (pmol/mL), 5B3 100 µg/mL + TSH 3 ng/mL, mutated TSHR [16]: 55.9 pmol/mL
- Mutated/wild type (%) of cyclic AMP produced; 5B3 10 µg/mL + TSH 3 ng/mL [16]: 74%
- Mutated/wild type (%) of cyclic AMP produced; 5B3 100 µg/mL + TSH 3 ng/mL [16]: 64%
- % inhibition of TSH stimulation, 5B3 10 µg/mL, wild type TSHR [17]: 3%
- Cyclic AMP produced (pmol/mL), 5B3 10 µg/mL + TSH 3 ng/mL, wild type TSHR [17]: 76.6 pmol/mL
- Cyclic AMP produced (pmol/mL), 5B3 100 µg/mL + TSH 3 ng/mL, wild type TSHR [17]: 87.7 pmol/mL
- Mean absorbance at 405 nm (absorbance at 405 nm) [7]: -0.006
- Mean absorbance at 405 nm (absorbance at 405 nm) [9]: -0.013
- Mean absorbance at 405 nm (absorbance at 405 nm) [18]: -0.011
- Inhibition of binding (%) [19]: -4.9%
- Mean absorbance at 405 nm (absorbance at 405 nm) [20]: -0.011
